Experimental data reported in paper PMC9482650, “Quantitative fragmentomics allow affinity mapping of interactomes” (Nature Communications, 2022).

T1: RADIL, Q96JH8
T1 sequence (Q96JH8 971-1071, limits assumed, looked up): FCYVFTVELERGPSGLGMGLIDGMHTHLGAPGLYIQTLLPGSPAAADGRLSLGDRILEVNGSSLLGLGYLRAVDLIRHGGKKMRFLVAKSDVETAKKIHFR


How the values were obtained:
MAST2, Q6P0Q8 = assay: holdup assay; parameters: key: below the threshold = too weak to quantify, mostly under pKd 3.1 to 4
RADIL, Q96JH8 = biological target: T1, RADIL, Q96JH8; assay: holdup assay; parameters: key: below the threshold = too weak to quantify, mostly under pKd 3.1 to 4
[1] = plain residues with an end cap or a label only (N-terminal biotin on a linker: ado-ado)
[2] = modified: phospho on T at position -2 from the C-terminal residue
[3] = modified: phospho on T at position -1 from the C-terminal residue

Sequence of MAST2, Q6P0Q8 (Q6P0Q8 1099-1202): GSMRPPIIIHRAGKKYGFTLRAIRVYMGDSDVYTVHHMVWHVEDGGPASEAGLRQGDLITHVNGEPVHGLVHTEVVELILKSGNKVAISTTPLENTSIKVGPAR

Binder | pKd (MAST2, Q6P0Q8; [1]) | pKd (RADIL, Q96JH8; [1]) | also measured
DQPLEKSTKL [AKAP10, O43572] | 5.41 | below the threshold | –
SMLNRRTTPV [CACNG4, Q9UBN1] | 4.65 | below the threshold | –
SVISRREWYV [NECTIN3, Q9NQS3] | 4.61 | 5.27 | –
RRVRKLPSTTL [RPS6KA1_-2P, Q15418] | – | – | pKd (MAST2, Q6P0Q8; [2]): below the threshold; pKd (RADIL, Q96JH8; [2]): below the threshold
VRPGVKESLV [SCN4A, P35499] | 4.87 | 4.22 | –
DHLGGGGESM [TNRC6A, Q8NDV7] | 3.62 | below the threshold | –
LRYARPADAL [PPP1R3G, B7ZBB8] | below the threshold | below the threshold | –
RDFDYIADWC [PKN2, Q16513] | 3.64 | 4.2 | –
ALPLPQSSTC [IGF1R, P08069] | 4.31 | below the threshold | –
RQSILFSTEV [BCR, P11274] | 5.4 | 4.48 | –
FEEEAEEEVA [TUBB4B, P68371] | below the threshold | below the threshold | –
ANGLMQTSKL [SSTR5, P35346] | 5.34 | below the threshold | –
SKSLERATQL [COMMD3, Q9UBI1] | 5.7 | 3.63 | –
PASAKGPLGV [CLDN19, Q8N6F1] | below the threshold | below the threshold | –
AEDEEIQTKM [UNC93A, Q86WB7] | 5.38 | below the threshold | –
RTQSSDSAYV [GJD2, Q9UKL4] | 4.17 | 4.43 | –
NASRTRITFV [MCM7, P33993] | 4.99 | 5.81 | –
RELVMRVTTV [MARCHF4, Q9P2E8] | 5.29 | 4.74 | –
SRPTKGPTLL [PLEKHH2, Q8IVE3] | 5.06 | 3.94 | –
QSPPNIYYKV [EFNB3, Q15768] | 4.54 | 4.29 | –

Binder | pKd (MAST2, Q6P0Q8; [1]) | pKd (RADIL, Q96JH8; [1]) | also measured
EYRKDNKVAA [LSM14A, Q8ND56;Q8ND56-2] | below the threshold | below the threshold | –
RRLQGTSSMV [GOLT1A, Q6ZVE7] | 4.72 | 4.28 | –
KSTTRSSSSC [NDE1, Q9NXR1;Q9NXR1-2] | 4.06 | below the threshold | –
LGHTPFVDEL [UQCRC2, P22695] | 4.56 | 3.66 | –
RRVRKLPSTTL [RPS6KA1_-1P, Q15418] | – | – | pKd (MAST2, Q6P0Q8; [3]): 5.17; pKd (RADIL, Q96JH8; [3]): 3.52
LEPAVRSSEL [SH2D3C, Q8N5H7] | 5.51 | below the threshold | –
GQSVDLVFPV [AKIP1, Q9NQ31] | 4.15 | 3.97 | –
QYPGSPDSWV [PKP4, Q99569] | 4.09 | 4.89 | –
ETSLVKGIDI [DENND5A, Q6IQ26] | below the threshold | below the threshold | –
GQETPLNTFC [MAP7D2, Q96T17] | 4.21 | below the threshold | –
RPGFASESKV [ADRB1, P08588] | 5.01 | below the threshold | –
DSATVRTYSC [PPFIA1, Q13136] | 3.98 | below the threshold | –
EEDTAEKDEL [HSPA5, P11021] | 3.7 | below the threshold | –
YPKQMPLSQV [FZD8, Q9H461] | 4.29 | 3.7 | –
LETREPTNTL [GRIP1, Q9Y3R0] | 3.92 | below the threshold | –
TGPWKNETTV [ADGRA1, Q86SQ6] | 5.31 | 4.04 | –
QELLEYETTV [XKR7, Q5GH72] | 5.46 | 4.73 | –
REKKFFCTIL [GNG4, P50150] | 5.62 | 5.25 | –
GDGLDDEIAV [NOS1AP, O75052] | 4.04 | below the threshold | –
LDKESFLTWL [YAP1, P46937] | 5.6 | 5.51 | –

Binder | pKd (MAST2, Q6P0Q8; [1]) | pKd (RADIL, Q96JH8; [1]) | also measured
PMESGICTIV [TTC24, A2A3L6] | 5.23 | 5.38 | –
REVVMRVTTV [MARCHF9, Q86YJ5] | 5.59 | 4.68 | –
VISERNSTTV [C3AR1, Q16581] | 5.2 | 4.11 | –
TMQMSLKDLL [GLA, P06280] | 4.19 | below the threshold | –
PLDSQQHTEV [FAT1, Q14517] | 5.21 | 3.89 | –
PDGEMMEVLI [AMOTL1, Q8IY63] | 3.73 | 3.9 | –
GCQGETEDVL [PTH2R, P49190] | 4.46 | below the threshold | –
NVYGTESVKI [GRIA3, P42263] | 3.81 | below the threshold | –
PAPGQHTTQI [STK16, O75716] | 5.27 | 3.75 | –
PELESKESVL [SLC1A4, P43007] | 5.21 | below the threshold | –
GDHLDRRVVL [VAC14, Q08AM6] | 4.1 | 3.52 | –
DFRHKSSFVI [JAM3, Q9BX67] | 3.76 | 3.96 | –
LTAQEQPVYI [APBA1, Q02410] | below the threshold | 4.53 | –
QFTLRHWLKV [SLC6A3, Q01959] | 4.82 | 4.42 | –
SRPRPDDLEI [GJA1, P17302] | 3.75 | below the threshold | –
QNRIITKTDV [SMCHD1, A6NHR9] | 5.05 | 3.64 | –
LSEFKAMDSF [CTNNA2, P26232] | below the threshold | below the threshold | –
NRVDSKETEC [ADAM17, P78536] | 4.86 | below the threshold | –
WRSKRTDTLL [RAMP3, O60896] | 5.45 | 3.57 | –
RALRASESGI [ADGRE5, P48960] | 3.82 | below the threshold | –
